Laboratory results as given in article PMC7337904.

Tests used:
[1] = target: AvaII restriction endonuclease (wild type) (UniProt Q8YYB7); assay: EMSA; conditions: EMSA: 20 mM Tris-acetate pH 7.9, 50 mM K-acetate, 10 mM CaCl2 (replacing Mg-acetate), 1 mg/ml BSA, 37 C 30 min; 10 pmol duplex; 8% native PAGE in TBE or TB + …
[2] = target: AvaII restriction endonuclease (Anabaena variabilis); assay: crystal structure; three crystal forms: AvaII alone, with partially cleaved dsDNA, and with RNA/DNA heteroduplex; protein in 50 mM Tris-HCl pH 7.4, 0.2 M NaCl, 5 mM CaCl2, 1 mM DTT, 5% glycerol; sitting drops at 18°C

stoichiometry N [2]	Substance	binding signal (fold weaker than dsDNA) [1]
	41-nt RNA/DNA heteroduplex, GGACC in RNA or DNA strand	100
2	AvaII restriction endonuclease (enzyme)	
